The results in this text go back to patent US7084111.

Holding throughout (test): cell-based or functional assay
Assay [1] has as its target mouse melanocortin-1 receptor (mouse) (UniProt Q01727).
Assay [2] has as its target mouse melanocortin-5 receptor (mouse) (UniProt P41149).
For assay [3], the target named is mouse melanocortin-3 receptor (mouse) (UniProt P33033).
For assay [4], the target named is mouse melanocortin-4 receptor (mouse) (UniProt P56450).

Some results are limits rather than exact numbers.

Chain of mouse melanocortin-5 receptor (mouse) (P41149 whole entry): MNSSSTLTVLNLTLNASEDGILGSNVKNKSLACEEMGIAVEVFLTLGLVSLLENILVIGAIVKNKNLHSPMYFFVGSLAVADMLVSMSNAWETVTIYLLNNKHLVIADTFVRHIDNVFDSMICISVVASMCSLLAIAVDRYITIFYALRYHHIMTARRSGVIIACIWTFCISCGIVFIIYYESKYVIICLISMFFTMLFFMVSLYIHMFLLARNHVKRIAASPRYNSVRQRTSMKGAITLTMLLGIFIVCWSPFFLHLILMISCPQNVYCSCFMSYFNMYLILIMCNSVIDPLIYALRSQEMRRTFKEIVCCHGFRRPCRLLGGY
Chain of mouse melanocortin-3 receptor (mouse) (P33033 whole entry): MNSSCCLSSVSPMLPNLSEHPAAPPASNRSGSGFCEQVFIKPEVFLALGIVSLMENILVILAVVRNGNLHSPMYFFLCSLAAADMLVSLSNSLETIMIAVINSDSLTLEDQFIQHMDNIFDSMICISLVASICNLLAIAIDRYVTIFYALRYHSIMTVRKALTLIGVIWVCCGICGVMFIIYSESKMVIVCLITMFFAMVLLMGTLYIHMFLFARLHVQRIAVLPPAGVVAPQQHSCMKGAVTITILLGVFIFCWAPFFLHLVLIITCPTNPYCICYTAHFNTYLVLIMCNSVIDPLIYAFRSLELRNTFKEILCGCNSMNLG
Chain of mouse melanocortin-1 receptor (mouse) (Q01727 whole entry): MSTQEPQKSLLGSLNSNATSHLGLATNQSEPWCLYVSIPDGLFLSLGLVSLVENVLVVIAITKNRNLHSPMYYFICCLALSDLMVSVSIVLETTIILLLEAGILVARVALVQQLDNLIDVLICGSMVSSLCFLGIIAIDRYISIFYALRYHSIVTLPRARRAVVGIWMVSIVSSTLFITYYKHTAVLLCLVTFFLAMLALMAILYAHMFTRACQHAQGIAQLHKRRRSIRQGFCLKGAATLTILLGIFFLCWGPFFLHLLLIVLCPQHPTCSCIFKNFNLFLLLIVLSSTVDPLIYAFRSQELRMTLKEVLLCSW
Chain of mouse melanocortin-4 receptor (mouse) (P56450 whole entry): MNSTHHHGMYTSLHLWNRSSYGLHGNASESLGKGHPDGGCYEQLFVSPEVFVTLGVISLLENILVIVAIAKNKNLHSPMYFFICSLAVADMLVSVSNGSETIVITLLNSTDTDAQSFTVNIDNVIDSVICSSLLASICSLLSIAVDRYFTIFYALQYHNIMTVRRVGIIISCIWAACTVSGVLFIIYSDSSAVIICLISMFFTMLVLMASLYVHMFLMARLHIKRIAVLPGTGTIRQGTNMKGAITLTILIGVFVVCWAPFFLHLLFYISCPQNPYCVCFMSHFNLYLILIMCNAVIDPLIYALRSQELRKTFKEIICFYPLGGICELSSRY

Substance MTII (peptide) returned an EC50 (agonist) in assay [1] of 0.02 nM.

For NDP-MSH (peptide), the EC50 (agonist) was determined as 0.071 nM in assay [2] and 0.098 nM in assay [3].

As for “hAGRP(109-118) decapeptide (from UniProt O00253 109-118)”, in assay [4], the pA2 (antagonist) was 6.8. For the same substance, the EC50 (agonist) was over 100000 nM in assay [2], 5120 nM in assay [1] and over 100000 nM in assay [3].
